According to the DeepSol protein solubility set:

Assay: soluble on expression in E. coli; label from the status in PepcDB or PDB records

Sequence	soluble on expression in E. coli
GSAPAKEPSVNTALVPQLSTISRALTPSPVMVLENIEPEIVYAGYDSSKPDTAENLLSTLNRLAGKQMIQVVKWAKVLPGFKNLPLEDQITLIQYSWMSLSSFALSWRSYKHTNSQFLYFAPDLVFNEEKMHQSAMYELCQGMHQISLQFVRLQLTFEEYTIMKVLLLLSTIPKDGLKSQAAFEEMRTNYIKELRKMVTKCPNNSGQSWQRFYQLTKLLDSMHDLVSDLLEFCFYTFRESHALKVEFPAMLVEIISDQLPKVESGNAKPLYFHRK	soluble
GSAGKFIVIFKNDVSEDKIRETKDEVIAEGGTITNEYNMPGMKGFAGELTPQSLTKFQGLQGDLIDSIEEDGIVTTQ	soluble
MTQTQPVGTLRLTIDDQGPQGQSRAVEQFHQGALRVIRPHYLDDSGQVCYTIIAIGGGYLGGDVYEQQFTIKDNAKALITTQSATKIYRTPQGPATQHTEINVGENAVLEYLADQTIAYREATYHQFTKVALHPSATFVMSEQITPGWHPDGKHFAYDEMRLHTEITDSTTGRLVLLDNLLLRPDSREGSFGWTEQYTHSGQMIVMGEGVDKQLVAELNEQLAAHPDVYGAVNFLSAPGTLLRGFIARTLSNRTEELINLHEHIASLLRGRWRGQEPVNLRKYLEHHHHHH	not soluble
MNRTAMRASQKDFENSMNQVKLLKKDPGNEVKLKLYALYKQATEGPCNMPKPGVFDLINKAKWDAWNALGSLPKEAARQNYVDLVSSLSPSLESSSQVEPGTD	soluble
MLSKKELAIITFLIHHKEQFVSSATLAEVIGMSDRTVRKYLKELISSLPEHGAHIISKQGRGYCLEIDHSMAFDIFWQESVTSKKRLADVTQVEESVDREDYVLHKFFFEDAVQDFEELCQELYISRTTLKHVLAGIKERIIPYQLELEITHQHIQIRGKEEDIRHFIMDYFFVTSFDNTLSTMVGNTFLEGINFAEIMIIVLDECRDAKLKLSDFVMNNLVLHIALMVQRIRSGCPLELFSIPIAIRQSDEYQVALRILYRVEEVMGIRFPKEEANYIALHLKVKHSVGKHWQDDNTDEKLQDHLKACIAKISQLTGMTLETDTNLFQGLLAHMMPLTIRLENHIQLTNPLTEEIKSQYPEIFTLTKQTFSDLLVCQKNDVSDDEWAYISLHLMAAIERYSNRHKLRVLVVCATGYGSAMMLKNRLEKEFEGRLRIVDVISYYEITEERLKTVDLIISSISLANLMFLTPVITVSVFLSNQDIETIRQFIGEQEGIKKEVSLPSQMSLAKAEQLLTGVFSPNRFLYLDEKISKEDLLLRMIACLDEAGTETFVEDFYHQMVLRENYSPVIYGEVLAFPHPANPMTYSEQVVVVICREPLEWDKAHQAVHFVFLLSPSKGHNHRLKYVSPGLASFVNQVELQQALLEEPNYSKFMTVFTPLIHD	not soluble
MGSDKIHHHHHHMNYKTLVMKILIINQHSMNHGDEAAGKALIRTLYDRGFQDIAVSYNMNDFDASCLFKYKNVKQILPTKKKARGLDKITKLYLKCPCFITRFLTLMYLQRRREVKMIKEANIVISAPGGVNMGLYRDYGYVWRLKEVLYQGKSLVIYSPSIGPFTTNDFFRKIAKEILTRSTFVSLRDTQSYRYAEDLSVHYIQSIDTAYLETPRMDLPLELLNLLPKEYVVLVPNELYSWHIDYFHYDKRSIDRFYSSLIDKFTSNGLTVVLLPQLFYQPNMEDEDYFNRLKAENEKVIVIPTYYDSDIQQAIIKRAQFVVGARYHTIVFSINNETPFVCLSYEHKMKNMLEILSLDSYSIDISYAFENHKIVIDKIWKMYLDRVSVLNVLYDGKKKAKLLARKTFDFLIKKLRSM	not soluble
MQKEKLSALMDGETLDSELLKALTHDPEMQKTWESYHLIRDSMRGDTPDVLHFDISARVMAAIENEPVRQVSPLIPEAQPAPQQWQKMPFWKKVRPWAAQLTQMGVAACVSLAVIVGVQHYNGQSETSQQPETPVFNTLPMMGKASPVSLGVPSEAAPVGSQQQQVQEQRRRINAMLQDYELQRRLHSEQLQFEQAQTQQAAVQVPGIQTLGTQSQ	not soluble
EKFVFEGKGDEVIGIEKPGDFVVVLDEVEHEKFVRKGDNLIIQHNIDLSEALCGFVRTISTLDGRTIFYRVLPGEVIAHADVKVIHNEGMPMRRASSDKGDLLVQFDVKFPDKINPDAAKKLADLL	not soluble
MEFGEKLIHLRKKNRLTQKQLAAKIGTTASTISKYENDNHRPPIFILAKLAEILGTTTDFLLDDVAGLREKNSVNAFPLIGNPELEKWYLELPYTYSEEELLMLKRIADAIENKK	not soluble
PRNQMPRIHASSGTTGKPTVVGYTKTDLDNWANLMARSMVGAGASPDDIVHNAYGYGLFTGGLGAHYGAERLGCTVVPASGGGTERQVQLIVDFGANVLCCTPSYALNIAEVAEQMGVSLKDAPLRVGLFGAEPWSDAMRRDLEARLGIKAVDVYGLSEIMGPGVACECH	not soluble
MALAEEDVHMIIKQVLDEVVGASTQYTHKDSVQWNQKAVEQITKKLVAAGKPYKYVVTSSFLQISSGSGLNVSTISYWNKVTDSSYMYRWEAKTMLAIVYVFAIAI	not soluble
MPANGGRGVGEGESPVSFFERLKAGLQKTKEALIGQVNTVMSVFRKIDDDLFDELEEALIRGDVGVATSAKLVEELRREARQKGLKNGDELLPLLKELVAERLGSGAAPLRLNEGGLTVILVVGVNGVGKTTTIGKLARHLREDRGLKVVLAAADTFRAAAMDQLKVWGERAGAEVVTGPEGADPAAVAFDGVKAARASGADVLIVDTAGRLHNKAHLMAELGKIARVLGREVPGAPHETLLVLDATTGQNAIQQTRLFKETVPVTGIALTKLDGTAKGGVVVAIADTEQVPVKFIGVGERLDDLQPFDPRQFVEALFSE	soluble
MGSDKIHHHHHHMISAEQLVFTYHDQKNPACQISTCQIASGQFIVLCGPSGSGKSTFLKLLNGIIPDYYAGKYEGRLDVADCQAGRDSVETFSRSVASVFQNPASQFFYREVQHELVFPCENQGLDAKVIMKRLWTLAEDFAFAELLNKDMFGLSGGQKQRVAIATAIMQGTNIMLFDEPTANLDSAGIAAVKAYLTQLKAAGKTIIVAEHRLHYLMDLADNFFYFKNGRLTDKLTTQNLLALTDEQRQDMGLRRLDLSDLKPVLAGKIESQHYRPDDSLCIEHLTVRAGSKILRCIEQLSFAVGSISGITGSNGLGKSQLVYYIAGILDDKKATIKFQGIPLSAKQRLSKTSIVLQEVSLQLFAESVSKEVNLGHERHPRTTEVIERLSLTTLLERHPASLSGGEQQRVMIAASLLADKDILIFDEPSSGLDLLQMKALANLLMQLKTQHKVVILISHDEELLSSVCDTIYQMLP	not soluble
MGSDKIHHHHHHMNVAERKKQTVVSSGISGLDEILRGGLPASNLYIVQGAPGSGKTTAALQFLRAGVALGEPCIYVSLSQTRAELEAIALSHGWTLDGIRVEELSASDSINRAADQTIFQTTELRLDETRKAIESAIEEHKPSRLVYDSLLEIRLITADSPRFRRELIAFKAFLAQRNIVALLLDTQTSETDRTGEEVDGIAHGVIRLDKSLEEYGGVRRRIEVSKMRGVPVADGYHDMAIREGEGVVVFPRIVPGAAARTVKPQLIKSGVDTLDEMFGGGQESGTTTLVIGQAGTGKSTMASLYATAALKRGESVGLFLFEERIETFFRRSEGLGMALRQFHEDGQLILRDFNPNEISPGEFGQIVQQSVNSEKVKVVVIDSFTGYLNSLPHREKAVRDIQSLLKYLARAGVLTILIVAQHGLLGQGVGIDVDVSFLGDTVLLLRIAEHEGRLRRSITVVKKRHGPHDLDVRELFIQSSGVSVIAYNPLPEV	not soluble
MGSDKIHHHHHHMSSNRCDDCHPAGIDDANRQPRLETAAKGGGEPAPSTANLPDAAHLPGGRIRIGISSCLLGNPVRFDGGHKFDPWVVNVLGAYLDFVPVCPEVECGMGIPREALRLVGDPSAPRLVTVKHGEDWTDRMRAWAERRVAELEGEGLCGYIFKRASPSSGMERVKVYPEFDPATGKSGGVPVQKGVGMFARAFIERFPLLPVEEEGRLNDPDLRENFIERLFVMRRWRQLLDDGLDTGGLVAFHTRHKLLMLAHSPQHYRTMGKLVAQAATYPRDELREAYQRLLMEGLRLRATPAKHVNVLQHIMGYFRKQLTPDEKQEMLEQIDLYRRALVPLVVPVTLLNHYVRKYGEKYLAGQFYLNPHPVELKLRNHV	not soluble
MRGGPVNSHDVTDEQWEGLAQVVPLRGRDAWPSAVGHRSIPEAQTEARRRFVVLRVNIFADARDVAETLMRGIPVLLDLTSAETEVAKRVLDFSTGVVFGLASGMHRVDRNVFLLTPPGTEVQGLMEGVGVPGILEHHHHHH	not soluble
MGSDKIHHHHHHMAHTITIVGLGNYGIDDLPLGIYKFLKTQDKVYARTLDHPVIESLQDELTFQSFDHVYEAHDQFEDVYNDIVAQLVEAANEKDIVYAVPGHPRVAETTTVKLLALAKDNTDIDVKVLGGKSFIDDVFEAVNVDPNDGFTLLDATSLQEVTLNVRTHTLITQVYSAMVAANLKITLMERYPDDYPVQIVTGARSDGADNVVTCPLYELDHDENAFNNLTSVFVPKIITSTYLYHDFDFATEVIDTLVDEDKGCPWDKVQTHETLKRYLLEETFELFEAIDNEDDWHMIEELGDILLQVLLHTSIGKKEGYIDIKEVITSLNAKMIRRHPHIFGDANAETIDDLKEIWSKAKDAEGKQPRVKFEKVFAEHFLNLYEKTKDKSFDEASLKQWLEKGESNT	not soluble
MSLNAPSNAPWLSHYDEGIPSSLAPYPRVTLPDILREAARKHPEDPALLFLGNTISYGELERESNAFAAALHASEVRKGNRVAVLLPNSPQMIIAEFGIWKAGGIAVMLNPLWTEHELERAIDECEAEIAVVLAPFYEKINHLRSRTSLKTVVITDLHDYFPAAMRNASPANGAVATMLQSSDLRMPAMIESYSGSQTPAVEVSPKDPALFIFSGGTTGKPKCAIGRHEASVMNGMQVDAWFRPVLGSDRVPVMLNLPLHHVYPQVAIIGYGFVTRSPLVLIPDPRDFELLIKTIKQYKVGLLPGIPTLFNALAAHPLLKEAPGSLDSLKLIISAAAPLHNKTRRRFKELTGATIIDAYGLTEAMVSPVCQPLNGIRKNGSVGLPVPDVEMRIVDADTGIEVLPSMEIGEIVIRSPQLMTGYWKNPEETAEVLRDGWLYTGDLGYIDDDGYLYIVDRKKDVIKPSGFQVWPSEVEEVIAMHPAVLETGVAGVPDDYQSEAVKAWVVLHKGHSLDAEQLKNWCRQTLAPYKVPKHIEFCEQLPKSALGKVLRQALVEQHLTSEGHHHHHH	soluble
MSLTPTELNLKAKALLETHFDDIVLSGEISKITLHGSGHWYFDLKDERSSIACAMFKGANLKVGFKPAVGDFLELCGSVSLYPESGRYQFIATSMKKAGFGDLEAQFLALKERLQKEGLFDPRFKKSLPKFPKKVGIITSKTSAALQDMLKLIHQKEYFLAKIYIFDALTQGNNAPFSLIQALKKADDMDLDVLIIARGGGSREDLFCFNDENLAREIFKAKTPIISAIGHEIDYVISDFVADFRAPTPSAAIDTLFYSKLDIEQSLDLMEEKLMQLWNYKIQNYENLLLNLSKFFKFNSLPKIIDEKIKQSHNIEKQLNHLLANQMRYNELKLDKLQNAYLQHENFFNKSKKFICIRKNGKIANLEDLKSDDIVILSSQTSQKEAKILEGHHHHHH	not soluble
